T1: G-CSF Receptor (G-CSFR) (human, UniProt Q99062 25-333)
T1 construct: G-CSF receptor (G-CSFR), human, bought recombinant protein; In the functional rows the receptor is the one on the cells of the test (murine NFS-60 or human CD34+ HSPCs); also called human G-CSFR; human G-CSF receptor; source: bought: R&D systems 381-GR-050/CF
T1 sequence: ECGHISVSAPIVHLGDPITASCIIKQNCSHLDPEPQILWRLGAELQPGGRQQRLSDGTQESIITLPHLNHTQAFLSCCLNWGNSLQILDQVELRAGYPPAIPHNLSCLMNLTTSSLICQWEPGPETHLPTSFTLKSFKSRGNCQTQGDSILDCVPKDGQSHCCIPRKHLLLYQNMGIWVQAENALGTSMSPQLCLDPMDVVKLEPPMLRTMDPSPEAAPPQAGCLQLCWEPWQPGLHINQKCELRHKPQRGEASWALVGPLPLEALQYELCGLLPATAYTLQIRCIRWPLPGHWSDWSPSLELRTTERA

B1: Recombinant human G-CSF (rhG-CSF), USP RS Filgrastim (ligand, UniProt P09919-2 31-204, looked up)
chain: TPLGPASSLPQSFLLKCLEQVRKIQGDGAALQEKLCATYKLCHPEELVLLGHSLGIPWAPLSSCPSQALQLAGCLSQLHSGLFLYQGLLQALEGISPELGPTLDTLQLDVADFATTIWQQMEELGMAPALQPTQGAMPAFASAFQRRAGGVLVASHLQSFLEVSYRVLRHLAQP
notes: granulocyte-colony stimulating factor (G-CSF), human, recombinant; printed length 174 amino acids; also called granulocyte-colony stimulating factor; wild-type G-CSF; source: bought: USP RS Filgrastim, Sigma-Aldrich 1270435

Assays:
[1] = target: G-CSFR (Homo sapiens) (UniProt Q99062); experiment: SPR; conditions: cited from earlier work
[2] = target: G-CSFR (Homo sapiens) (UniProt Q99062); experiment: ITC; conditions: cited from earlier work
[3] = target: T1, G-CSF Receptor (G-CSFR); experiment: SPR; G-CSFR amine-coupled on a CM5 chip (Biacore X100), analytes flowed over, multi-cycle kinetics, 25 °C, 10 mM HEPES pH 7.4, 150 mM NaCl, 3.4 mM EDTA, 0.005% Tween-20; 1:1 model, linear fit of kobs against concentration; legend speaks of apparent affinity for the bivalent ligands; conditions: both partners purified

Row | Molecule | Kd [1] [nM] | Kd [2] [nM] | Kd [3] [nM] | koff [3] [s⁻¹] | kon [3] [M⁻¹ s⁻¹]
1 | G-CSF (from UniProt P09919) | 0.2 | 1.4 | – | – | –
2 | B1 | – | – | 1.1 | 0.00049 | 300000

— paper PMC9135769, “A topological refactoring design strategy yields highly stable granulopoietic proteins” (Nature Communications, 2022)
